Biological target: SET-26::GFP, excessively sumoylated (from F2 ulp-2(tv380) or ulp-2(RNAi) animals) (C. elegans) (UniProt Q9U263)
Assay: co-IP; anti-GFP immunoprecipitation of SET-26::GFP from whole-worm lysates (1% PFA, sonicated), blot with anti-H3K4me3; WT and F2 ulp-2(tv380) backgrounds; 3 biological replicates

UniProt Q9U263, sequence (Q9U263 whole entry): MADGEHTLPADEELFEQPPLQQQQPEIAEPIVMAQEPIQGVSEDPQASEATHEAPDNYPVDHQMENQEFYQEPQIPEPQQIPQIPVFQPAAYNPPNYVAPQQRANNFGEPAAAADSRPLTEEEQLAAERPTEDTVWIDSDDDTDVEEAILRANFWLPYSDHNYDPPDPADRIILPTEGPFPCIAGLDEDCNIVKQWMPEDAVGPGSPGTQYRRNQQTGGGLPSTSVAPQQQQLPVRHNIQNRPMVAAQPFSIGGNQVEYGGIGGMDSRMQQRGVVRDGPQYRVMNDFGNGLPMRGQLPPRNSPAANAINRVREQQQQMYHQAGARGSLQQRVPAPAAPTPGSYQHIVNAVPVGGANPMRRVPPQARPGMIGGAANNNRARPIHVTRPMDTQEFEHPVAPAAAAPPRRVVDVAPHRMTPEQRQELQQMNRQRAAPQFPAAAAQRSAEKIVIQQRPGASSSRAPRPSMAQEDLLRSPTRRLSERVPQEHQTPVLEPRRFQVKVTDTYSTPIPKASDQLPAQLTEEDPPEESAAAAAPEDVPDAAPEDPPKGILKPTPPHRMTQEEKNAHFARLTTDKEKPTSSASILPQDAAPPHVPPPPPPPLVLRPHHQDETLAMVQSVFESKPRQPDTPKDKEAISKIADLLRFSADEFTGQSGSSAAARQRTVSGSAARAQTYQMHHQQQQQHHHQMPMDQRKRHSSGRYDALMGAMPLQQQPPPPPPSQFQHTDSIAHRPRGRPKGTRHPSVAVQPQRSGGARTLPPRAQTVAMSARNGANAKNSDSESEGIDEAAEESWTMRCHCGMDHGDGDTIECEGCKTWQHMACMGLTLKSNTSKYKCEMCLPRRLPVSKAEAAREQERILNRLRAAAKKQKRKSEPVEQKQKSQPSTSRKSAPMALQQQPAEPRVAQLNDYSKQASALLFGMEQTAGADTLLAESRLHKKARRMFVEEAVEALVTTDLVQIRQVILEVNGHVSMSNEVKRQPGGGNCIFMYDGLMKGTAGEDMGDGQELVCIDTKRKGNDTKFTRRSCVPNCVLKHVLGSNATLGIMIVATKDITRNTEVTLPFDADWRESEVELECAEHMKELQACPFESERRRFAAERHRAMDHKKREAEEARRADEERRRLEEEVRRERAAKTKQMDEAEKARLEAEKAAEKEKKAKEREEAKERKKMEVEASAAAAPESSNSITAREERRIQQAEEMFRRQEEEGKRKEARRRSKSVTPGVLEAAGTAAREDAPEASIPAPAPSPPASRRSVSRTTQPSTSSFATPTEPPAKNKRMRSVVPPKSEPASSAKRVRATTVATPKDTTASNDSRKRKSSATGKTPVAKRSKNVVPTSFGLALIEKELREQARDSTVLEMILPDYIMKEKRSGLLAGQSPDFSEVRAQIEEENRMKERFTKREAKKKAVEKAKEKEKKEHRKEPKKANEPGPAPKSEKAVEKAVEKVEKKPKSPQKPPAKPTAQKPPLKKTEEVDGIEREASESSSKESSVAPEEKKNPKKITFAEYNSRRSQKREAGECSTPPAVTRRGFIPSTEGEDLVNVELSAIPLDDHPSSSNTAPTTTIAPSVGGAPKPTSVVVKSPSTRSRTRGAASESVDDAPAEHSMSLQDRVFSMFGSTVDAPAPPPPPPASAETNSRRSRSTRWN

Work on “Histone H3 tri-methylated at lysine 4 (H3K4me3) (from UniProt P08898 1-136) (natural protein)” yielded a reduction of binding compared with WT of 55%.
